This note sets out measurements from the nanobody polyreactivity screen of Harvey et al. (2022).

A short description of this series: yeast display, Sf9 membrane polyspecificity reagent, FACS + sequencing; frameworks hold sequencing errors. In short, it runs like this: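 Nanobodies came from a synthetic yeast display library in Saccharomyces cerevisiae BJ5465, induced with galactose for 36–48 hours and stained for 1 hour at 4 °C with 10% biotinylated, detergent-solubilized Sf9 membrane reagent. Cells were enriched on streptavidin microbeads and then FACS-sorted, with low and high (top ~1%) gates set on anti-HA fluorescence for expression and streptavidin fluorescence for reagent binding. Each polyreactivity label reflects the gate a clone came from. Genes were amplified by colony PCR, sequenced by MiSeq 2 × 250 and filtered by CDR length.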
For the sequence “QVQLVESGGGLVQAGGSLRLSCAASGSTFYRYAMGWYRQAPGKERELVAAISSDGTTYYADSVKGRFTISRDNAKNTVYLQMNSLKPEDTAVYYCAKRGYYRSRRYDYWGQGTQVTVSS”, the “polyreactivity (PSR sort gate)” value is reported as “high polyreactivity”. Then “QVQLVESGGGLVQAGGSLRLSCAASGSTFYRYAMGWYRQAPGKERELVAAISYRGGSTYYADSVKGRFTISRDNAKNTVYLQMNSLKPEDTAVYYCNKRSTRRYDYWGQGTQETVSS”, with “high polyreactivity”. “QVQLVESGGGLVQAGGSLRLSCAASGSTFYRYAMGWYRQAPGKERELVAGISSSGGSTYYADSVKGRFTISRDNAKNTVYLQMNSLKPEDTAVYYCAAVGQWGYGYWGQGTQVTVSS”: the “polyreactivity (PSR sort gate)” value is “high polyreactivity”. Then “QVQLVESGGGLVQAGGSLRLSCAASGSTFYRYAMGWYRQAPGKERELVATISGGGRTNYADSVKGRFTISRDNAKNTVYLQMNCLKPEDTAVYYCAARGYTGRFSRVNVPFYYWGQGTQVTVSS”, with “high polyreactivity”; and “QVQLVESGGGLVQAGGSLRLSCAASGSTFYSNAMGWDRQAPGKERELVASISWSSGSTYYADSVKGRFTISRDNAKNTVYLQMNSLKPEDTAVYYCATDAGGPYRFGYWGQGTQVTVSS”, with “low polyreactivity”.

In the case of “QVQLVESGGGLVQAGGSLRLSCAASGSTFYSNAMGWYRQAPGKERELVAGIDTSDGSTNYADSVKGRITISRDNAKNTVYLQMNSLKPEDTAVYYCNTTLRDSRQYVDRAPYTRYDYWGQGTQVTVSS”, the “polyreactivity (PSR sort gate)” value is on record as “low polyreactivity”. “QVQLVESGGGLVQAGGSLRLSCAASGSTFYSNPMGWSRQAPGKESEFVAAISWSGGSTYYADSVKGRFTISRDNAKNSVYFQMYSLKPQDTAVYSCAKKPYYYAYGGYGYWGQGNQVTVSS”: the “polyreactivity (PSR sort gate)” value is “high polyreactivity”. As for “QVQLVESGGGLVQAGGSLRLSCAASGSTFYSYAMGWYRQAPGKERELVAAIDWSGDNTNYADSVKGRFTISRDNAKNTVYLQMNSLKPEDTAVYYCAADWYYTRRRYNYWGQGTQVTVSS”, the “polyreactivity (PSR sort gate)” value was “low polyreactivity”. Then “QVQLVESGGGLVQAGGSLRLSCAASGSTFYSYAMGWYRQAPGKERELVAAIDWSGTSTYYADSVKGRFTISRDNAKNTVYLQMNSLKPEDTAVYYCAARYTRGGSGPDYNYWGQGTQVTVSS”, with “high polyreactivity”. On to “QVQLVESGGGLVQAGGSLRLSCAASGSTFYSYAMGWYRQAPGKERELVAAISSSGGRTRYADSVKGRFTISRDNAKNTVYLQMNSLKPEDTAVYYCAARNRVRVGTRIGRIDEDYWGQGTQVTVSS”, for which the “polyreactivity (PSR sort gate)” value is on record as “high polyreactivity”. The result for “QVQLVESGGGLVQAGGSLRLSCAASGSTFYTNAKGWYRQAPGKEREFVAAISWAGSSTYADSVKGRFTISRDNAKTTVYLQMHSLKPEDTAVYYCNADVLDGGYDYWGQGTQVTVSS” reads “low polyreactivity”; that for “QVQLVESGGGLVQAGGSLRLSCAASGSTFYTNAMGWYRQAPGKEREFVAAISWSGSSTYADSVKGRFTISRDNAKNTVYLQMNSLKPEDTAVYYCSADWFKLRTDYYWGQGTQVTVSS”, “low polyreactivity”; that for “QVQLVESGGGLVQAGGSLRLSCAASGSTFYTYAMGWSRPAPGKERELVAAINWIGDSTYYADSVKGRFTISRDNAKNTVYLQMNSLKPEDTAVYYCAADFTLGSRTEGLHMDYWGQGTQVTVSS”, “high polyreactivity”. As for “QVQLVESGGGLVQAGGSLRLSCAASGSTFYTYTAMGWYRQAPGKERELVAAITWRGGSTYYADSVKGRFTISRDNAKNTVYLHMNRLKPEDTSGYYCAADCVMTWWAYDYWGQGTQVTVSS”, the “polyreactivity (PSR sort gate)” value was “high polyreactivity”. The result for “QVQLVESGGGLVQAGGSLRLSCAASGSTFYTYTMGWYRPGPGKEMELVAAISSSGGDTYYADSVKGRFTISRDNAKNTVYLQMNSLKPEDTAVYYCAALGAFPSLEFDYWGQGTQVTVSS” reads “low polyreactivity”; that for “QVQLVESGGGLVQAGGSLRLSCAASGSTFYVNAMGSYRQAPGQERELVAAIRSSAGNTTYADSVKGRFTISRDNAKNTVYLQMNSLKPEETAVYYCAADSRPYLRDYWGQGTQVTVSS”, “low polyreactivity”.
